Earlier results on one molecule are cited in patent publication US20160282364A1, “ASSAY FOR INSULIN-DEGRADING ENZYME (IDE) INHIBITORS” (PRESIDENT AND FELLOWS OF HARVARD COLLEGE, priority 2013, published 2016).

Usually Km stands for the concentration of substrate that gives half-maximal velocity. As a reminder, the kcat is the number of substrate molecules converted per active site and unit of time at saturation.

For this series, the system named is IDE.

B1: insulin-like peptide 3 (protein, UniProt P51460 21-55; P51460 106-131, looked up)
Insulin-like 3 B chain: LGPAPTPEMREKLCGHHFVRALVRVCGGPRWSTEA
Insulin-like 3 A chain: AAATNPARYCCLSGCTQQDLLTLCPY
modifications: Insulin-like 3
notes: IDE substrate in vitro
As for B1, where the note is “IDE substrate”, the Km is 0.055 µM and the kcat is 0.0025 s⁻¹. Besides, the Degradation result (degradation kinetics compared to insulin) is listed as “Fast”.
